This note sets out measurements from patent publication US20240240234.

The subject of data set [1] is EcoGII adenine methyltransferase. The settings on record: methylation efficiency by DpnII protection; SAM; 0.1% BSA improves.
Data set [2] deals with Hia5 adenine methyltransferase. The settings on record: methylation efficiency by DpnII protection; SAM; 0.1% BSA improves.
Data set [3] concerns LMNB1 (Lamin B1) (Homo sapiens). The settings on record: DiMeLo-seq pA-Hia5 in situ, signal:background mA ratio (IgG control 1.6).

As for 90-bp duplex with single GATC, the activity in data set [1] and in data set [2] was 100% in each case.
Take “constitutive lamina-associated domains (cLADs)”: in data set [3], the binding signal came out at 34.3.
